Assay results from the supplement of paper PMC10065799, “High-throughput profiling of sequence recognition by tyrosine kinases and SH2 domains using bacterial peptide display” (eLife, 2023).

Assays:
AncSZ = experiment: phosphorylation enrichment, bacterial display (enrichment ratio); higher = better substrate or ligand; peptides without Tyr show the background
EPHB1 = EPHB1 (UniProt P54762); experiment: as above
EPHB2 = EPHB2 (UniProt P29323); experiment: as above
FGFR1 = FGFR1 (UniProt P11362); experiment: as above
FGFR3 = FGFR3 (UniProt P22607); experiment: as above
Fer (mouse) = experiment: as above
Fes = Fes (UniProt P07332); experiment: as above
Fyn = Fyn (UniProt P06241); experiment: as above
Hck = Hck (UniProt P08631); experiment: as above
Jak2 = Jak2 (UniProt O60674); experiment: as above
MERTK = MERTK (UniProt Q12866); experiment: as above
c-Abl (mouse) = experiment: as above
c-Src = experiment: as above
Grb2 SH2 = Grb2 SH2 (UniProt P62993); experiment: SH2 binding enrichment of the phosphorylated peptide, bacterial display (enrichment ratio); higher = better substrate or ligand; peptides without Tyr show the background
SHP2-C SH2 = experiment: as above
c-Src SH2 = experiment: as above
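Wherever SH2 binding enrichment of the phosphorylated peptide, bacterial display is given: peptide library displayed on the E. coli surface as eCPX fusions, selected cells deep-sequenced, score is each peptide's frequency after selection divided by its frequency in the input.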
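Wherever phosphorylation enrichment, bacterial display is given: 11-residue human phosphosite peptides and single-mutation variants displayed on the E. coli surface, counted by deep sequencing, each peptide's frequency after selection divided by its frequency in the unselected input library; frequency after pTyr selection over input frequency; kinase dosed for 20-30% of maximal phosphorylation in three min.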

Fes, sequence (P07332 whole entry, looked up): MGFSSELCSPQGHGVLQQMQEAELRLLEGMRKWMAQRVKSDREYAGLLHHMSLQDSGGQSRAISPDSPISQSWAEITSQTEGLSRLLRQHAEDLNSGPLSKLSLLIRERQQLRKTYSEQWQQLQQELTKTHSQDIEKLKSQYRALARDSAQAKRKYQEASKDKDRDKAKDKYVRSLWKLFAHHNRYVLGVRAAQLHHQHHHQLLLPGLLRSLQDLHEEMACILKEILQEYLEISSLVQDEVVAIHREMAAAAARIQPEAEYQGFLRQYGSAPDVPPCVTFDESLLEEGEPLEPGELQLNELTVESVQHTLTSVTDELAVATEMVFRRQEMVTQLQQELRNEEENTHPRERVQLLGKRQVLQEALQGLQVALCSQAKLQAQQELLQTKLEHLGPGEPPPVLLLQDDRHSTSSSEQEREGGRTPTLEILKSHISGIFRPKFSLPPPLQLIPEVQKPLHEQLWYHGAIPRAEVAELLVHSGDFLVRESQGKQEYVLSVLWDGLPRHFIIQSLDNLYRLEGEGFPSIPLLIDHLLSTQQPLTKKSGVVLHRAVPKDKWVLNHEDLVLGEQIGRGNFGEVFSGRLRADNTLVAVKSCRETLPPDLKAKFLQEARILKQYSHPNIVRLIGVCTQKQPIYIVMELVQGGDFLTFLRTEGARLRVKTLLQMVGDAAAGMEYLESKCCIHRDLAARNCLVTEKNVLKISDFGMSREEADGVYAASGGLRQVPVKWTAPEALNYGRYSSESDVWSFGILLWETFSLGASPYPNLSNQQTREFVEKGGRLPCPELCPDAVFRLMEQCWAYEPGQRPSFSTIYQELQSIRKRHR
Jak2, sequence (O60674 whole entry, looked up): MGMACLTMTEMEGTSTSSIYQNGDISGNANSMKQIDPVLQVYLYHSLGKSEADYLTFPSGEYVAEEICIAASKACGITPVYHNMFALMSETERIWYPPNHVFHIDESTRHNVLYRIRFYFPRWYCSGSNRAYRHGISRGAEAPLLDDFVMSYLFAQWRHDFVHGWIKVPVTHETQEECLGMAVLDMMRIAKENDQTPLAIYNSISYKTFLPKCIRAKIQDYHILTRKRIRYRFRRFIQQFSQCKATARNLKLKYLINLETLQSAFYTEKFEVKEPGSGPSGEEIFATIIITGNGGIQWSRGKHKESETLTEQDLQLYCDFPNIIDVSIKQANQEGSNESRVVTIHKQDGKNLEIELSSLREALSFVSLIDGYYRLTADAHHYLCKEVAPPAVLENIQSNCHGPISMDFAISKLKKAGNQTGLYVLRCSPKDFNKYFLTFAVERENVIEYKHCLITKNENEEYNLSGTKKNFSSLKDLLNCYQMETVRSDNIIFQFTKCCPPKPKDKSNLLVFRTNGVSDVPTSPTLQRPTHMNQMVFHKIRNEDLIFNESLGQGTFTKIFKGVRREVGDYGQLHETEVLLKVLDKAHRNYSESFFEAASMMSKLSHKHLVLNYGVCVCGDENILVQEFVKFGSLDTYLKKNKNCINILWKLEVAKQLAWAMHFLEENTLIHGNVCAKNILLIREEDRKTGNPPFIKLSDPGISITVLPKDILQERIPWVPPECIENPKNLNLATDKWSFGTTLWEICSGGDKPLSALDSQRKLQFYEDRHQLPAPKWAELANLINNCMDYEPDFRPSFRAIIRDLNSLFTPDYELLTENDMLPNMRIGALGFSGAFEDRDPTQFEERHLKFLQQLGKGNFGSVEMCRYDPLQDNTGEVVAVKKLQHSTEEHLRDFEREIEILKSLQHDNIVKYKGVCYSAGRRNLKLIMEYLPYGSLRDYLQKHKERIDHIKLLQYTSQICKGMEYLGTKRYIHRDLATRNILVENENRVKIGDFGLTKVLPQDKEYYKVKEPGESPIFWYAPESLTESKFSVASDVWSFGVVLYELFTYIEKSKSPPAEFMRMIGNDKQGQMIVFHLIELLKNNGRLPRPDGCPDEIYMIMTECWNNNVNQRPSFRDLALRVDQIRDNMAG
EPHB1, sequence (P54762 whole entry, looked up): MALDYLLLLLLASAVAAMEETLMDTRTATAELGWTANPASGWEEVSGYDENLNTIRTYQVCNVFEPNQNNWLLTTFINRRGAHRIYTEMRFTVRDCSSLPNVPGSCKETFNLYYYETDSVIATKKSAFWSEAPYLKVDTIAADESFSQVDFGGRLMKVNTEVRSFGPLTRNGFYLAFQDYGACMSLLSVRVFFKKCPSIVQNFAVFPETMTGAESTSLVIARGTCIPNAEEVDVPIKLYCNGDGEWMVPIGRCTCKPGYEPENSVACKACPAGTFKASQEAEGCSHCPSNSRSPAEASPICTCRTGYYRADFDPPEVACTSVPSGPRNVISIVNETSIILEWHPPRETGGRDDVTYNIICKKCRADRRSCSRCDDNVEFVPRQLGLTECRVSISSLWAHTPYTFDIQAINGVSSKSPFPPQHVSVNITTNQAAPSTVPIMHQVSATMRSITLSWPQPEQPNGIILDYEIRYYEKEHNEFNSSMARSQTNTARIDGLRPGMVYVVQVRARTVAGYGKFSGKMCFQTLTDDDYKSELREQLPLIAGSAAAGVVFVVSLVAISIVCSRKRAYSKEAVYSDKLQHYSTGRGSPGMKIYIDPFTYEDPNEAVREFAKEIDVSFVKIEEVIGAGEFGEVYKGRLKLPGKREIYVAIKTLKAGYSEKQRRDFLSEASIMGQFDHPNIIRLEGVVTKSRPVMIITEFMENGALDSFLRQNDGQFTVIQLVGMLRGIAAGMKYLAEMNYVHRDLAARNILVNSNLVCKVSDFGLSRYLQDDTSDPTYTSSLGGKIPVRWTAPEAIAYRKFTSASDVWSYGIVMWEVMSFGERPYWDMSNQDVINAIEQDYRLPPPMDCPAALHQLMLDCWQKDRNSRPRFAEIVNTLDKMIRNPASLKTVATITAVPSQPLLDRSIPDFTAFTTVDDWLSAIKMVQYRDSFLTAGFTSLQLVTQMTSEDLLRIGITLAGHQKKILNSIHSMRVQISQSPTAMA
FGFR1, sequence (P11362 whole entry, looked up): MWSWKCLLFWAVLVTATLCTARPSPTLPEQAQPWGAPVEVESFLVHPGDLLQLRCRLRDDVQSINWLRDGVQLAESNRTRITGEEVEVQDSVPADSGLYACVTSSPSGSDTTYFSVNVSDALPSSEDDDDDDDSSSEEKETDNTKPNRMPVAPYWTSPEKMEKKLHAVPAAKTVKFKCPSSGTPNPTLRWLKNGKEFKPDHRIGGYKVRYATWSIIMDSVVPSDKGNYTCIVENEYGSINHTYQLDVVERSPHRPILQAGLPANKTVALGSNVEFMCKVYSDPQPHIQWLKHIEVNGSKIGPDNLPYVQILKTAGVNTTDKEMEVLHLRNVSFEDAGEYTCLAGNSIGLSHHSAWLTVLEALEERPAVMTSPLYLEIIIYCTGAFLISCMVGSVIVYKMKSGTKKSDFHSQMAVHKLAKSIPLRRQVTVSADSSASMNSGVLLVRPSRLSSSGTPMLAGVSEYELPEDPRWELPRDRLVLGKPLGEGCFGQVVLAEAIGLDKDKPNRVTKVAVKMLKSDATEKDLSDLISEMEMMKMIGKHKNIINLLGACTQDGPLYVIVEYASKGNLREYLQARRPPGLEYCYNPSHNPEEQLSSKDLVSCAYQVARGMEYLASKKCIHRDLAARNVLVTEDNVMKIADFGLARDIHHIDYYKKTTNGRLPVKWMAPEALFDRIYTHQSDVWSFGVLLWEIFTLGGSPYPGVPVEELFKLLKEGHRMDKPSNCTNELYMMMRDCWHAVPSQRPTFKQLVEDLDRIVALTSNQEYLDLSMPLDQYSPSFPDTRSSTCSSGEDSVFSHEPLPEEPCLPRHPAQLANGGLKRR
Fyn, sequence (P06241 whole entry, looked up): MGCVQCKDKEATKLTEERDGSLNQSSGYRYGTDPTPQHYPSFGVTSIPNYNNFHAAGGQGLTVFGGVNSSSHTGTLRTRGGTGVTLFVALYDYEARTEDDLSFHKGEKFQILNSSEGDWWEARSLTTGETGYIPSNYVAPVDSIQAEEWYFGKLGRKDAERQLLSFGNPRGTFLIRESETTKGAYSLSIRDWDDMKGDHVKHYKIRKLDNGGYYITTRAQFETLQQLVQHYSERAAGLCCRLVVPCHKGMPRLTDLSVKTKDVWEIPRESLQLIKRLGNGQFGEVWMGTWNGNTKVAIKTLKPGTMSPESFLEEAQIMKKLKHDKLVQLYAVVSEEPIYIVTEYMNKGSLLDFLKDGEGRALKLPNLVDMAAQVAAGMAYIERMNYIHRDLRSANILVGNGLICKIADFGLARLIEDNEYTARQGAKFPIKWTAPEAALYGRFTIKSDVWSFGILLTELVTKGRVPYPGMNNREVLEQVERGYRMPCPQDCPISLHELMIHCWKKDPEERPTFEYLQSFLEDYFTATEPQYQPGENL
Hck, sequence (P08631 whole entry, looked up): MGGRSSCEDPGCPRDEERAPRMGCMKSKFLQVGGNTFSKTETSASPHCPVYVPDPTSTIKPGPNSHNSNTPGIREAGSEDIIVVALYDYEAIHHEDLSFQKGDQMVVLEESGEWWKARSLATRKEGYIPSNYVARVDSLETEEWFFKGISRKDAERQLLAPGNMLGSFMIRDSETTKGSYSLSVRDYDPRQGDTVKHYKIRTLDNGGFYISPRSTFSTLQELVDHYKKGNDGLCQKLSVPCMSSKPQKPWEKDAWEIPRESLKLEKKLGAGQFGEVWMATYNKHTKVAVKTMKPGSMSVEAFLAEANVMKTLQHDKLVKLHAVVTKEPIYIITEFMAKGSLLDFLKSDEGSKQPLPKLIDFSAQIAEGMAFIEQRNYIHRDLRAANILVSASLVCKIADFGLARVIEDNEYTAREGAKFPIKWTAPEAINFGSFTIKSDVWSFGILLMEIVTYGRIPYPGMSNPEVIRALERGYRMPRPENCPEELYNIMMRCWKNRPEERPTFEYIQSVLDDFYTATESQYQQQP

| Sequence | SH2 binding enrichment (Grb2 SH2) | SH2 binding enrichment (SHP2-C SH2) | SH2 binding enrichment (c-Src SH2) | phosphorylation enrichment (AncSZ) | phosphorylation enrichment (EPHB1) | phosphorylation enrichment (EPHB2) | phosphorylation enrichment (FGFR1) | phosphorylation enrichment (FGFR3) | phosphorylation enrichment (Fer (mouse)) | phosphorylation enrichment (Fes) | phosphorylation enrichment (Fyn) | phosphorylation enrichment (Hck) | phosphorylation enrichment (Jak2) | phosphorylation enrichment (MERTK) | phosphorylation enrichment (c-Abl (mouse)) | phosphorylation enrichment (c-Src) |
| --- | --- | --- | --- | --- | --- | --- | --- | --- | --- | --- | --- | --- | --- | --- | --- | --- |
| DYYDLYGGKKF [PTPN11_Y66_E69K] | 0.74 | 0.581 | 0.388 | 1.31 | 1.89 | 1.22 | 11.5 | 9.68 | 0.421 | 0.825 | 3.27 | 5.9 | 0.971 | 1.21 | 0.698 | 3.05 |
| EALDFCGEVRT [PTEN_Y155_Y155C] | 1.07 | 0.645 | 0.534 | 1.31 | 0.882 | 0.691 | 0.803 | 1.09 | 0.674 | 1.48 | 0.583 | 0.642 | 1.41 | 0.482 | 0.984 | 0.545 |
| EDDIIYTQDFM [STK11_Y362_T367M] | 0.984 | 0.65 | 0.466 | 1.49 | 0.697 | 0.746 | 0.911 | 1.25 | 0.776 | 1.31 | 1.03 | 0.992 | 1.21 | 0.784 | 0.889 | 1.1 |
| EDGCIYPATIA [SMN1_Y109] | 0.927 | 0.671 | 0.589 | 1.07 | 0.744 | 0.562 | 0.546 | 0.727 | 0.513 | 1.37 | 0.587 | 0.577 | 1.1 | 0.545 | 0.87 | 0.539 |
| EEAAGYAQESQ [CAMKV_Y491] | 1.05 | 0.718 | 0.577 | 1.22 | 0.523 | 0.543 | 0.545 | 0.691 | 0.547 | 1.39 | 0.401 | 0.661 | 1.2 | 0.325 | 0.935 | 0.604 |
| EEGRVYVYHLS [ITGAE_Y549_R552H] | 0.701 | 0.897 | 0.438 | 1.13 | 0.576 | 0.491 | 0.58 | 0.75 | 0.756 | 1.22 | 0.64 | 0.519 | 0.998 | 0.449 | 0.713 | 0.828 |
| EEQKKNFNAMK [SCN5A_Y1494_Y1494N_YF] | 0.895 | 0.644 | 0.474 | 0.908 | 0.381 | 0.494 | 0.38 | 0.546 | 0.369 | 0.711 | 0.376 | 0.512 | 0.691 | 0.409 | 0.607 | 0.385 |
| EEVGIYRMSGV [BCR_Y1089_V1091M] | 0.744 | 0.957 | 0.431 | 0.925 | 0.55 | 0.502 | 0.556 | 0.612 | 0.535 | 0.921 | 6.38 | 5.64 | 1.12 | 0.647 | 9.58 | 6.23 |
| EFNLMYDGAKE [IRF6_Y97_T100A] | 0.965 | 0.684 | 0.626 | 1.35 | 0.593 | 0.576 | 0.652 | 0.845 | 0.593 | 1.29 | 0.594 | 0.702 | 1.13 | 0.517 | 0.857 | 0.584 |
| EHEALYLEADL [CENPF_Y1920] | 0.845 | 0.56 | 0.57 | 1.66 | 0.57 | 0.84 | 1.73 | 1.8 | 1.2 | 1.34 | 0.653 | 0.715 | 1.12 | 0.77 | 0.938 | 0.986 |
| EIIPFYGMSSF [FNDC3B_Y175_T179S_YF] | 0.652 | 0.592 | 4.4 | 1.06 | 0.764 | 0.916 | 0.497 | 0.786 | 1.46 | 0.995 | 1.06 | 1.15 | 0.772 | 1.54 | 0.865 | 0.822 |
| EKMWTYMRSAE [GRIA4_Y695] | 0.842 | 0.726 | 0.442 | 1.04 | 0.573 | 0.62 | 0.409 | 0.602 | 0.359 | 1.01 | 0.433 | 0.432 | 0.836 | 0.299 | 0.81 | 0.404 |
| ENELTYFCCKK [CD59_Y86_YF] | 0.975 | 0.935 | 0.711 | 1.32 | 0.465 | 0.543 | 0.867 | 0.711 | 0.478 | 1.04 | 1.08 | 1.18 | 2.65 | 0.703 | 0.737 | 2.21 |

More lines, main results first:

| SH2 binding enrichment (Grb2 SH2) | SH2 binding enrichment (SHP2-C SH2) | SH2 binding enrichment (c-Src SH2) | Sequence | phosphorylation enrichment (AncSZ) | phosphorylation enrichment (EPHB1) | phosphorylation enrichment (EPHB2) | phosphorylation enrichment (FGFR1) | phosphorylation enrichment (FGFR3) | phosphorylation enrichment (Fer (mouse)) | phosphorylation enrichment (Fes) | phosphorylation enrichment (Fyn) | phosphorylation enrichment (Hck) | phosphorylation enrichment (Jak2) | phosphorylation enrichment (MERTK) | phosphorylation enrichment (c-Abl (mouse)) | phosphorylation enrichment (c-Src) |
| --- | --- | --- | --- | --- | --- | --- | --- | --- | --- | --- | --- | --- | --- | --- | --- | --- |
| 0.907 | 0.818 | 0.606 | DVLVEYQGEGR [GNS_Y416] | 0.945 | 0.427 | 0.533 | 0.545 | 0.599 | 0.43 | 1.08 | 0.504 | 0.496 | 0.934 | 0.414 | 0.709 | 0.464 |
| 0.893 | 0.781 | 0.462 | EAGKVYLKAAM [CBFB_Y96_P100A] | 1.03 | 0.565 | 0.484 | 0.674 | 0.742 | 0.568 | 1.26 | 0.408 | 0.494 | 1.26 | 0.333 | 0.775 | 0.449 |
| 0.874 | 0.741 | 0.478 | EAIAKYDLKAT [GRB2_Y7_F9L] | 0.809 | 0.489 | 0.464 | 0.466 | 0.634 | 0.443 | 0.713 | 0.408 | 0.458 | 0.851 | 0.412 | 0.617 | 0.438 |
| 0.754 | 0.503 | 0.432 | EAKENYGKTLK [CHL1_Y291_T287A] | 0.655 | 0.348 | 0.314 | 0.456 | 0.441 | 0.305 | 0.732 | 0.338 | 0.328 | 0.52 | 0.327 | 0.495 | 0.424 |
| 0.812 | 0.544 | 0.436 | EDASEYFENFI [PARP4_Y214_F215Y_YF] | 2.37 | 0.798 | 0.806 | 1.48 | 1.58 | 0.598 | 1.47 | 0.613 | 0.624 | 1.39 | 0.58 | 1.07 | 0.618 |
| 0.795 | 0.714 | 0.473 | EDGRLYAVKCS [PKMYT1_Y136_R140C] | 0.972 | 0.594 | 0.609 | 0.513 | 0.66 | 0.529 | 1.12 | 0.589 | 0.792 | 0.861 | 0.549 | 0.82 | 0.63 |
| 0.797 | 0.509 | 0.569 | EEEPVYKAEPE [HCLS1_Y360_E361K] | 1.06 | 0.573 | 0.525 | 0.597 | 0.891 | 0.576 | 1.49 | 0.675 | 0.595 | 1.36 | 0.518 | 0.826 | 0.717 |
| 0.816 | 0.602 | 0.436 | EEGENYQKGER [CHGB_Y173] | 0.921 | 0.53 | 0.571 | 0.509 | 0.731 | 0.518 | 1.15 | 0.518 | 0.467 | 0.963 | 0.425 | 0.797 | 0.463 |
| 0.9 | 0.538 | 0.714 | EEGNPYYSGAR [MCCC2_Y520_S523G] | 0.898 | 0.409 | 0.551 | 0.542 | 0.552 | 0.425 | 0.917 | 0.959 | 1.01 | 0.719 | 0.449 | 0.597 | 1.83 |
| 0.651 | 0.556 | 0.33 | EEVKAYLDFRE [CHAC2_Y78] | 1.2 | 0.652 | 0.765 | 0.584 | 0.865 | 0.651 | 1.44 | 0.605 | 0.601 | 1.35 | 0.524 | 0.867 | 0.59 |
| 0.95 | 0.732 | 0.346 | EFLQKYKGFKI [SYNE1_Y6953_YF] | 0.773 | 0.372 | 0.477 | 0.393 | 0.491 | 0.433 | 0.752 | 0.376 | 0.411 | 0.775 | 0.395 | 0.549 | 0.397 |
| 0.995 | 0.833 | 0.516 | EIVFVYVKKRS [DNAI2_Y7_YF] | 0.995 | 0.373 | 0.476 | 0.498 | 0.467 | 0.593 | 1.05 | 0.341 | 0.456 | 1.34 | 0.296 | 0.585 | 0.386 |
| 0.809 | 0.991 | 13.5 | EKSREYDRLFE [PIK3R1_Y463_YF] | 0.929 | 0.457 | 0.602 | 0.434 | 0.577 | 0.437 | 0.993 | 0.448 | 0.522 | 0.935 | 0.453 | 0.784 | 0.5 |
| 2.78 | 1.14 | 0.832 | ELTAKYLNFFR [P3H4_Y181_Q186R_YF] | 0.684 | 0.414 | 0.425 | 0.394 | 0.513 | 0.335 | 0.778 | 0.444 | 0.456 | 0.632 | 0.435 | 0.574 | 0.366 |
| 2.21 | 1.03 | 1.38 | ELTAKYLNYYQ [P3H4_Y181] | 0.781 | 0.705 | 0.642 | 0.683 | 0.71 | 0.445 | 0.802 | 0.407 | 0.493 | 0.715 | 0.977 | 0.564 | 0.492 |
| 0.629 | 0.658 | 0.537 | ENAGFYFQVSA | 1.08 | 0.483 | 0.493 | 0.416 | 0.721 | 0.474 | 1.15 | 0.329 | 0.304 | 1.3 | 0.333 | 0.797 | 0.347 |
